Experimental data from the RNAGym collection of RNA variant scans (doi:10.7554/elife.80360).

B1: Twister Ribozyme (parent)
chain: AACACUGCCAAUGCCGGUCCCAAGCCCGGAUAAAAGUGGAGGGGGCGG

Variants of: B1
Assay: self-cleavage, relative activity (ratio to wild type); higher = more cleavage; co-transcriptional

Variant | self-cleavage
AACACUGCCAAUGCCAGUCCCAAGCCCGGAUAAAAGUGGAGGGGUCGG | 0.858
AACACUGCCAAUGCCGGUCCCAAGCACGGAUAGAAGUGGAGGGGGCGG | 0.257
AACACUGCCAAUGCCGGUCCCAAGUCCGGAUAAACGUGGAGGGGGCGG | 0.779
AACACUGCCAAUGCCGGUCCCAAGCCCGGAUAAAAGUCGAGGGGUCGG | 0.719
AACACUGCCAAUGCCGGUCCCCAGCCCGGAUAACAGUGGAGGGGGCGG | 0.169
AACACUGCCAAUGCCGGUCCGAAGCCCCGAUAAAAGUGGAGGGGGCGG | 0.0382
AACACUGCCAAUACCGGUCCCAAUCCCGGAUAAAAGUGGAGGGGGCGG | 0.13
AACACUGCCAAUGCCGGUCCCACGCCCGGAUAAAAGUGGAAGGGGCGG | 0.138
AACACUGCCAAUGCCGGUCCCAAGCCCGGAUAAAAGUGGAGGGGGAAG | 1.03
AACACUGCCAAUGCCGGUCACGAGCCCGGAUAAAAGUGGAGGGGGCGG | 0.0601
AUCACUGCUAAUGCCGGUCCCAAGCCCGGAUAAAAGUGGAGGGGGCGG | 0.133
AACACUCCCAAUGCCGGUUCCAAGCCCGGAUAAAAGUGGAGGGGGCGG | 0.0513
AACACUGCCAAAGCCGGUCCCACGCCCGGAUAAAAGUGGAGGGGGCGG | 0.394
AACAUUGCUAAUGCCGGUCCCAAGCCCGGAUAAAAGUGGAGGGGGCGG | 0.337
AACACUGACAAUGCCGGUCCCAAGCCCGGUUAAAAGUGGAGGGGGCGG | 0.284
AACACUGCCAAUGCCGGUCCCAAGCCCGGAUAAGAGUGGAGGGGGCCG | 0.193
AACACUGCUAAUGCCGGUCCCAGGCCCGGAUAAAAGUGGAGGGGGCGG | 0.0717
AACACUGCCCAUGCCGGUCCCAAGCCCGGAUAAAUGUGGAGGGGGCGG | 1.04
AACGCGGCCAAUGCCGGUCCCAAGCCCGGAUAAAAGUGGAGGGGGCGG | 0.074
AACACUGCCAAUGCCGGUCCCAAGCCCCGAUAAAAGUGGAAGGGGCGG | 0.408
AACACUGCUAAUGCCGGUCCCAAGCCCGGAUAAAAGUGGAGGGGGUGG | 0.729
AAAACUGCCAAUGCCGGUCCCAAGCCCGGAUAAAUGUGGAGGGGGCGG | 0.16

Variant | self-cleavage
AAUACUGCCAAUGCCGGUCCCAAGCCCGGAUAGAAGUGGAGGGGGCGG | 0.361
AACACUGCCAAUGUCGGUCCCAAACCCGGAUAAAAGUGGAGGGGGCGG | 0.173
AACACUGCCAAUGCCGGUCCCACGCCCGGAUAAAAGUGGAGGCGGCGG | 0.123
AACACUGCCAAUGCCGGUCCCAAGCCCGGAUAAUAGUGGAGGGGGAGG | 0.76
AACACUGCCAAUGCCGGUCCCAAGCCCGGAUAAAAGUGCGGGGGGCGG | 0.164
AACACUGCCAAUGCCGGUCCCAAGCCCGGAUAAAAGUCGACGGGGCGG | 0.181
AACGCUGCCAAUGCCGAUCCCAAGCCCGGAUAAAAGUGGAGGGGGCGG | 0.473
AACACUGCCAAUGCCGGUCCCAAGCCCGGAUGAAAGUGGAGGCGGCGG | 0.0899
AGCACUGCCAAUGCCGGUCCCAAGCCCGGACAAAAGUGGAGGGGGCGG | 0.3
AACACUGCCAAUGCCGGUCCCAAGCCCGCAUAAAAGUGGAGGGGGCUG | 0.3
AACACUGCCAAUCCCGGUCCCAAGCCCGGAUAAAAGUGGAGGAGGCGG | 0.0854
AACACUGCCAAUGCCGGUCCCAAGCUCGGAUAAACGUGGAGGGGGCGG | 0.446
AACAUUGCCAAUGCCGGUCCCAAGCCGGGAUAAAAGUGGAGGGGGCGG | 0.0666
AACACAGCCAAUGCCGGUCCCAAGCCCGGAUAAAAGUGGAGGGGGCUG | 0.441
AACACUGCCAAUGCCGCUCCCAAGCCAGGAUAAAAGUGGAGGGGGCGG | 0.0647
AACACUGCAAUUGCCGGUCCCAAGCCCGGAUAAAAGUGGAGGGGGCGG | 0.767
AACACUGCCAUUGCCGGUCCCAAGCCCGGAUAAUAGUGGAGGGGGCGG | 0.974
AACACUGCCAAGGCCGGUCCCAAGCCCGGAUAAAAGUGGAGGUGGCGG | 0.454
AACACUGCCAAUGCCGGUCCCAAGCCCGGAUAAAAGUAGAGAGGGCGG | 0.176
AACACUGCCACUGCCGGUCCUAAGCCCGGAUAAAAGUGGAGGGGGCGG | 0.1
AACAGUGCCAAUGCCGGUCCCAAGCCCGGAUAAAAGUGGGGGGGGCGG | 0.182
AACACUGCCAAUGCCGGUCCCAAGCCCGGAAAAAAGUGGAGGGGUCGG | 0.619

Variant | self-cleavage
AACACUGCCAAUGCCGGUCCCAAGCCCGGAUAAAGGUGGAGGGAGCGG | 0.808
AACACUGCCAAUGCCGGUCCCAGGCCCGGAUAACAGUGGAGGGGGCGG | 0.0596
AACACUGCCAAUCCCGGUCCCAAGCCCGGAUAAAAGUGGAGGGGACGG | 0.209
AACACUUCCAAUGCCGGUCCCAAGCCCGGAUAAAAGUGGAGGGGCCGG | 0.118
AACACUGCCACUGCCGGUCACAAGCCCGGAUAAAAGUGGAGGGGGCGG | 0.129
AACACGGCCAAUGCCGGUCCCAAGCCCGGAUAAAAGUGGAGGGCGCGG | 0.234
AACACUGCCAAUGCCGGUCCCAAGCCCGGAUAAGAGUGGAGGGGGCGA | 0.645
AACACUGCCAAUGCCGGUCCCAAGCCCGGAUAAAACUGGAGGGGGAGG | 0.367
AACACUGCCAAUGCCGGUCCCACGGCCGGAUAAAAGUGGAGGGGGCGG | 0.0881
AACACUGCCAUUGCCGGUCCCAAGCCCGCAUAAAAGUGGAGGGGGCGG | 1.02
AACACUGCCAAUGCAGGUCCCAAGCCCGGAUAAAAGUGGAGGGCGCGG | 0.57
ACCACUUCCAAUGCCGGUCCCAAGCCCGGAUAAAAGUGGAGGGGGCGG | 0.0484
AACACUGCCAAUUCCGGUCCCAAGCCGGGAUAAAAGUGGAGGGGGCGG | 0.0965
AACACUGCCAAUGCCGGUCCCAAGCCCGGAUACAAGUGGAGGGGGCGG | 0.975
AACACUGCCAAUGCCGCUCACAAGCCCGGAUAAAAGUGGAGGGGGCGG | 0.0695
AACACUGCCAAUGCCGGUCCCAAGCCCGGAUAAAAGUUGAGGGAGCGG | 0.811
AACACGGCCAAUGCCGGUCCCAAGCCCGGAUACAAGUGGAGGGGGCGG | 0.367
AACACUGCCAGUGCCGGUCCCAAGCCCGGAUAAAAGUGGAGGGGGCAG | 0.812
AACACUGCCAAUGCCGAUCCUAAGCCCGGAUAAAAGUGGAGGGGGCGG | 0.0984
AACAAUGCCAAUGCCGGUCCCAAGCCCGGAUAAACGUGGAGGGGGCGG | 0.655
GACACUGCCAAUGCAGGUCCCAAGCCCGGAUAAAAGUGGAGGGGGCGG | 0.265
AACACUGCCAAGGCCGGUCCCAAGCGCGGAUAAAAGUGGAGGGGGCGG | 0.451

Variant | self-cleavage
AACACUGCCAAUGCCGGUCCCAAGACCGGAUAGAAGUGGAGGGGGCGG | 0.079
AACAUUGCCAAUGCCGGUCCCAAGCCCGGAUAAAGGUGGAGGGGGCGG | 0.435
AACACUGCCAAUGCCGGUCCCAAGCCCGGAUAAUAGAGGAGGGGGCGG | 0.368
AACACUGACAAGGCCGGUCCCAAGCCCGGAUAAAAGUGGAGGGGGCGG | 0.213
AACACUGCCAAUGCCGUUCCGAAGCCCGGAUAAAAGUGGAGGGGGCGG | 0.064
AACACUGCCAAUGCCGCUCCCAAGCCCGGAUAACAGUGGAGGGGGCGG | 0.0523
AACUCUGCCAAUCCCGGUCCCAAGCCCGGAUAAAAGUGGAGGGGGCGG | 0.0685
AACACUGCCAAUGCCGGUCCCAAGCCCGGAUAAUACUGGAGGGGGCGG | 0.132
AACACUGCCAAUGCCAGUCCCAAGCCCGGAUAAGAGUGGAGGGGGCGG | 0.574
AACACUGCCAAUGCCGGUCCCAAGCCCGGAUAAAAGGCGAGGGGGCGG | 0.208
AACACUGCCAAUGCCGGUCCCAAGCCCGCAUUAAAGUGGAGGGGGCGG | 0.443
AACACUGCCAAUGCCGGUCCCAAGCCCGGUUAAAAGUGGAGGGAGCGG | 0.971
AACACUGCAAAUGCCGGUCCCAAGCCCGGAUAAAAGUGGAGAGGGCGG | 0.149
AACACUGCCAAUGCCGGUCCCAAGCCCGGAUGAAAGUGGAUGGGGCGG | 0.609
AACACUGCCAAUGCGGGUCCCAAGCCCGGAUAAAAGUGGAGGGGGCGG | 0.101
AACACUGCCAAUGCCGGUCCCAAGCUCGUAUAAAAGUGGAGGGGGCGG | 0.204
AACACUGCCAAUGCCGGUCCAAAGCCCGGAUAAAAGUGGAAGGGGCGG | 0.27
AACACUGCCAAUGCCGGUCCCAAGCCCGGAUAAAAGUGGCGGGGGCCG | 0.193
AACACUGCCAAUUCCGGUCCCAAGCCCGGAUGAAAGUGGAGGGGGCGG | 0.354
AACACUGCCAAUGCCGGUCCCAAGCUCGGAUAAAAGUAGAGGGGGCGG | 0.157
AACACUGCCAAUGCCGGUCCCAAGCCGGGAUAAAAGUGGAGGGGGAGG | 0.0878
AAGACUGCCAAUGCCGGUCCCAAGCCCGGAAAAAAGUGGAGGGGGCGG | 0.57

Variant | self-cleavage
AACACUGCCAAUGCCGCUCCCAUGCCCGGAUAAAAGUGGAGGGGGCGG | 0.0824
AACACUGCCAAUGCCGGUCCCAAGUCCGGAUAAAAGUGGAGGGGGCUG | 0.573
AACACGGCCACUGCCGGUCCCAAGCCCGGAUAAAAGUGGAGGGGGCGG | 0.173
AACACUGCCAAUGCCGGUUCCAAGCCCGGAUAAAAGUGUAGGGGGCGG | 0.125
GACACUGCCCAUGCCGGUCCCAAGCCCGGAUAAAAGUGGAGGGGGCGG | 0.532
AACACUGCCAAUGCCGAUCCCAAGCUCGGAUAAAAGUGGAGGGGGCGG | 0.923
AACAAUGCCAAUACCGGUCCCAAGCCCGGAUAAAAGUGGAGGGGGCGG | 0.132
AACACUGCUCAUGCCGGUCCCAAGCCCGGAUAAAAGUGGAGGGGGCGG | 0.948
AACACUGCCAAUCCCGGUCCCAAGCCCGUAUAAAAGUGGAGGGGGCGG | 0.46
AAGACUGCCAAUGACGGUCCCAAGCCCGGAUAAAAGUGGAGGGGGCGG | 0.418
AACACUGCCAAUGCCGGCCCCAAGCCCGGAUGAAAGUGGAGGGGGCGG | 0.664
AACACUGCUAAUGCCGGUCCCAAGCCCGGAAAAAAGUGGAGGGGGCGG | 0.667
AACACUGCCAAUGCCGGUCCCAAGGCCGGAUAAAAGUUGAGGGGGCGG | 0.131
AACACUGCCAAUGCCGGUCCCAAGGCCGGAUAAAAGUAGAGGGGGCGG | 0.0823
AACACUGCCAAUGCCGGUCGCAAGCCCGGCUAAAAGUGGAGGGGGCGG | 0.0614
AACACUGCCAAUGCCGGUACCAAGCCCGGAUAAAAGUUGAGGGGGCGG | 0.12
AACACUGCCAAUGCCGGUCCCGAGCCCGGAUAAAAGUGGAGGGGGCAG | 0.184
AACACUGCCAAUGCCGGUCCCAAGCCCGGAUAAACGUGGUGGGGGCGG | 0.142
